Laboratory results published in patent US20260274985A1 (MYTHIC THERAPEUTICS, published 2026).

What follows are binders tested against T1, TROP2 on TROP2-positive NCI-H1975 cells (human, UniProt P09758 27-323) (assay: cell-based or functional assay).
T1 sequence: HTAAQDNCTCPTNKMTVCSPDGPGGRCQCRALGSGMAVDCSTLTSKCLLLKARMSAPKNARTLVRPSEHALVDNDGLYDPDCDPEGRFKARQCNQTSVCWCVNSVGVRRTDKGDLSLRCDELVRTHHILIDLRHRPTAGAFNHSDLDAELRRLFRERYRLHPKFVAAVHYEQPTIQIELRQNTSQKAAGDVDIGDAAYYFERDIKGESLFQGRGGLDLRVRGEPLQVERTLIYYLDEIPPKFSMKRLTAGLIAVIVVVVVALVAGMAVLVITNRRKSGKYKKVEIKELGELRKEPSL

Row | Binder | cytotoxicity on TROP2-positive NCI-H1975 cells (antibody complexed to secondary antibody-MMAF, cell titer glow assay)
1 | MYT11770 (antibody, human IgG1, V domains shown) VH: QVQLQESGPGLVKPSETLSLTCTVSGGSISSYGVHWIRQPPGKGLEWIGVIWTSGVTDYNSALMGRVTISVDTSKNQFSLKLSSVTAADTAVYYCARDGDYDRYTMDYWGQGTLVTVSS VL: DIVMTQSPDSLAVSLGERATINCRASKSVSTSGYSYMHWYQQKPGQPPKLLIYLASNLESGVPDRFSGSGSGTDFTLTISSLQAEDVAVYYCQHSRHLPYTFGQGTKLEIK | ~30 % greater cytotoxicity compared to WT datopotamab
2 | MYT12440 (antibody, human IgG1, V domains shown) VH: QVQLQESGPGLVKPSETLSLTCTVSGGSISSYGVHWIRQPPGKGLEWIGVIWTSGVTDYNSALMGRVTISVDTSKNQFSLKLSSVTAADTAVYYCARDGDYDRYTMDYWGQGTLVTVSS VL: DIVMTQSPDSLAVSLGERATINCRASKSVSTSGYSYMHWYQQKPGQPPKLLIYLASNLHSGVPDRFSGSGSGTDFTLTISSLQAEDVAVYYCHHSRELPYTFGQGTKLEIK | ~30 % greater cytotoxicity compared to WT datopotamab

What follows are binders tested against T2, Human TROP2 Protein, His Tag (Acro Biosystems) (human, UniProt P09758 27-274) (assay: BLI (Octet)).
T2 construct: Bought protein; also called TACSTD2; not shown: His tag
T2 sequence: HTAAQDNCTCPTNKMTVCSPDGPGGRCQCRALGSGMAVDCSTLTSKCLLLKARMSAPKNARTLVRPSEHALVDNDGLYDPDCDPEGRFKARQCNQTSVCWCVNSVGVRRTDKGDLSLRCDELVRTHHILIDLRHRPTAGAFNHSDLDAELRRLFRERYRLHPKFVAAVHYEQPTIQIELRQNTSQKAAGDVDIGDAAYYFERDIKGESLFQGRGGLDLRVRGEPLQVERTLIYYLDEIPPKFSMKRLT

Row | Binder | binding result
3 | MYT12431 (hu7E6SVG variant, HCV substitutions at 33, 51, 106) (antibody, V domains shown) VH: QVQLQESGPGLVKPSETLSLTCTVSGGSISSYHVHWIRQPPGKGLEWIGVHWTSGVTDYNSALMGRVTISVDTSKNQFSLKLSSVTAADTAVYYCARDGDYDRYTHDYWGQGTLVTVSS VL: DIVMTQSPDSLAVSLGERATINCRASKSVSTSGYSYMHWYQQKPGQPPKLLIYLASNLESGVPDRFSGSGSGTDFTLTISSLQAEDVAVYYCQHSRELPYTFGQGTKLEIK | no binding (tested: 50 nM)
4 | MYT12433 (hu7E6SVG variant, HCV substitutions at 33, 56, 106) (antibody, V domains shown) VH: QVQLQESGPGLVKPSETLSLTCTVSGGSISSYHVHWIRQPPGKGLEWIGVIWTSGHTDYNSALMGRVTISVDTSKNQFSLKLSSVTAADTAVYYCARDGDYDRYTHDYWGQGTLVTVSS VL: DIVMTQSPDSLAVSLGERATINCRASKSVSTSGYSYMHWYQQKPGQPPKLLIYLASNLESGVPDRFSGSGSGTDFTLTISSLQAEDVAVYYCQHSRELPYTFGQGTKLEIK | no binding (tested: 50 nM)
5 | MYT12434 (hu7E6SVG variant, HCV substitutions at 33, 103, 106) (antibody, V domains shown) VH: QVQLQESGPGLVKPSETLSLTCTVSGGSISSYHVHWIRQPPGKGLEWIGVIWTSGVTDYNSALMGRVTISVDTSKNQFSLKLSSVTAADTAVYYCARDGDYDHYTHDYWGQGTLVTVSS VL: DIVMTQSPDSLAVSLGERATINCRASKSVSTSGYSYMHWYQQKPGQPPKLLIYLASNLESGVPDRFSGSGSGTDFTLTISSLQAEDVAVYYCQHSRELPYTFGQGTKLEIK | no binding (tested: 50 nM)
6 | MYT12468 (hu7E6SVG variant, LCV substitutions at 60, 94, 101 (Ala at 94)) (antibody, V domains shown, Full IgG in Expi293 supernatant) VH: QVQLQESGPGLVKPSETLSLTCTVSGGSISSYGVHWIRQPPGKGLEWIGVIWTSGVTDYNSALMGRVTISVDTSKNQFSLKLSSVTAADTAVYYCARDGDYDRYTMDYWGQGTLVTVSS VL: DIVMTQSPDSLAVSLGERATINCRASKSVSTSGYSYMHWYQQKPGQPPKLLIYLASNLEHGVPDRFSGSGSGTDFTLTISSLQAEDVAVYYCQASRELPYHFGQGTKLEIK | no binding (tested: 50 nM)
7 | MYT12473 (hu7E6SVG variant, LCV substitutions at 94, 97, 101 (Ala at 94)) (antibody, V domains shown, Full IgG in Expi293 supernatant) VH: QVQLQESGPGLVKPSETLSLTCTVSGGSISSYGVHWIRQPPGKGLEWIGVIWTSGVTDYNSALMGRVTISVDTSKNQFSLKLSSVTAADTAVYYCARDGDYDRYTMDYWGQGTLVTVSS VL: DIVMTQSPDSLAVSLGERATINCRASKSVSTSGYSYMHWYQQKPGQPPKLLIYLASNLESGVPDRFSGSGSGTDFTLTISSLQAEDVAVYYCQASRHLPYHFGQGTKLEIK | no binding (tested: 50 nM)

Each binder was assayed against T3, Human TROP2 Protein, His Tag (Acro Biosystems) (human, UniProt P09758 27-274) (assay: BLI (Octet) [2/2]).
T3 construct: not shown: His tag
T3 sequence (looked up): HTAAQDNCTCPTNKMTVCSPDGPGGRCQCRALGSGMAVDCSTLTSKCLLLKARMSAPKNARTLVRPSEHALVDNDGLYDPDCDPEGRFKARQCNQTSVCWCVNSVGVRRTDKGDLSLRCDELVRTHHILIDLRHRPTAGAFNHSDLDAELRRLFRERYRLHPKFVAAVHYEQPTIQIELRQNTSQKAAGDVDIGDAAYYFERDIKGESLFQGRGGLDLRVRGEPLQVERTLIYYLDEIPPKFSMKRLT

Row | Binder | binding result
8 | MYT13438 (antibody, V domains shown, Full-length IgG from Expi293 supernatant; also called hu7E6SVG heavy chain and light chain pairing variant) VH: QVQLQESGPGLVKPSETLSLTCTVSGGSISSYGVHWIRQPPGKGLEWIGVHWTSGVTDYNSALMGRVTISVDTSKNQFSLKLSSVTAADTAVYYCARDGDYDRYTMDYWGQGTLVTVSS VL: DIVMTQSPDSLAVSLGERATINCRASKSVSTSGYSYMHWYQQKPGQPPKLLIYLASNLHSGVPDRFSGSGSGTDFTLTISSLQAEDVAVYYCQASRELPYTFGQGTKLEIK | no binding (tested: 50 nM)
9 | MYT13442 (antibody, V domains shown, Full-length IgG from Expi293 supernatant; also called hu7E6SVG heavy chain and light chain pairing variant) VH: QVQLQESGPGLVKPSETLSLTCTVSGGSISSYGVHWIRQPPGKGLEWIGVIWTSGVTDYNSALMGRVTISVDTSKNQFSLKLSSVTAADTAVYYCARDGDYDRYTHDYWGQGTLVTVSS VL: DIVMTQSPDSLAVSLGERATINCRASKSVSTSGYSYMHWYQQKPGQPPKLLIYLASNLHSGVPDRFSGSGSGTDFTLTISSLQAEDVAVYYCQASRELPYTFGQGTKLEIK | no binding (tested: 50 nM)
10 | MYT13447 (antibody, V domains shown, Full-length IgG from Expi293 supernatant; also called hu7E6SVG heavy chain and light chain pairing variant) VH: QVQLQESGPGLVKPSETLSLTCTVSGGSISSYGVHWIRQPPGKGLEWIGVIWTSGVTDYNSALMGRVTISVDTSKNQFSLKLSSVTAADTAVYYCARDGDYDRYTHDYWGQGTLVTVSS VL: DIVMTQSPDSLAVSLGERATINCRASKSVSTSGYSYMHWYQQKPGQPPKLLIYLASNLHSGVPDRFSGSGSGTDFTLTISSLQAEDVAVYYCQHSRELPYHFGQGTKLEIK | no binding (tested: 50 nM)
11 | MYT13439 (antibody, V domains shown, Full-length IgG from Expi293 supernatant; also called hu7E6SVG heavy chain and light chain pairing variant) VH: QVQLQESGPGLVKPSETLSLTCTVSGGSISSYGVHWIRQPPGKGLEWIGVIWTSGHTDYNSALMGRVTISVDTSKNQFSLKLSSVTAADTAVYYCARDGDYDRYTMDYWGQGTLVTVSS VL: DIVMTQSPDSLAVSLGERATINCRASKSVSTSGYSYMHWYQQKPGQPPKLLIYLASNLHSGVPDRFSGSGSGTDFTLTISSLQAEDVAVYYCQASRELPYTFGQGTKLEIK | no binding (tested: 50 nM)
12 | MYT13444 (antibody, V domains shown, Full-length IgG from Expi293 supernatant; also called hu7E6SVG heavy chain and light chain pairing variant) VH: QVQLQESGPGLVKPSETLSLTCTVSGGSISSYGVHWIRQPPGKGLEWIGVIWTSGHTDYNSALMGRVTISVDTSKNQFSLKLSSVTAADTAVYYCARDGDYDRYTMDYWGQGTLVTVSS VL: DIVMTQSPDSLAVSLGERATINCRASKSVSTSGYSYMHWYQQKPGQPPKLLIYLASNLHSGVPDRFSGSGSGTDFTLTISSLQAEDVAVYYCQHSRELPYHFGQGTKLEIK | no binding (tested: 50 nM)

Each binder was assayed against T3, Human TROP2 Protein, His Tag (Acro …) (assay: Octet BLI: IgG supernatant on anti-human Fc sensor, 50 nM TROP2-His at pH 7.4, dissociation at pH 7.4 or 5.4; Octet Binding Result 1=pH dependent).
Experimental: After allowing for four days of protein expression, cell culture supernatants were collected, quantified by SDS-PAGE analysis (DNS), and the pH dependence of the variant was evaluated using biolayer interferometry (BLI) on an Octet RED 96e instrument. Briefly, cell culture supernatants were diluted based on qualitative expression level of the variant determined by visual examination of SDS-PAGE gels, 5 μL of cell culture supernatant was diluted into 195 μL of 1×PBST, pH 7.4 for high expressors, 25 μL of cell culture supernatant was diluted into 175 μL of 1×PBST, pH 7.4 for medium expressors and 100 μL of cell culture supernatant was diluted into 100 μL of 1×PBST, pH 7.4 for low expressors for loading onto the sensor tips. The resulting diluted supernatants were then captured on an anti-human Fc sensor (Forte Bio). A baseline was established using 1×PBST (50 mM Potassium Phosphate Buffer+150 mM NaCl+0.05% Tween 20) pH 7.4, and the sensor was associated with 50 nM of TROP2 (Human TROP2 Protein, His Tag, Acro Biosystems) in 1×PBST pH 7.4 for 120 sec to generate an association curve. In the dissociation phase, the antibody-antigen complex on the sensor was exposed to 1×PBST pH 7.4 or pH 5.4, for 300 sec. Association and dissociation phase curves were examined for the starting ABPC antibody (with no substitutions) and each corresponding antibody variant at pH 5.4 and pH 7.4 to inform on two criteria: a) enhanced dissociation (i.e., higher koff values) at pH 5.4 due to histidine or alanine substitution compared to the starting ABPC, (with no substitutions), and b) reduced dissociation at pH 7.4 (i.e., lower koff values) compared to pH 5.4 in the antibody variant itself and with the starting ABPC (with no substitutions). […] It was also noted that while some mutations obliterated TROP2 binding, others were tolerated with little or n change in TROP2 binding kinetics.

Row | Binder | binding result
13 | MYT13266 (antibody, V domains shown, Full-length IgG from Expi293 supernatant; also called datopotamab heavy chain and light chain pairing variant) VH: QVQLVQSGAEVKKPGASVKVSCKASGYTFTTAGMQWVRQAPGQGLEWMGWINTHSGVPKYAEDFKGRVTISADTSTSTAYLQLSSLKSEDTAVYYCARSGHGSSYWYFDVWGQGTLVTVSS VL: DIQMTQSPSSLSASVGDRVTITCKASQDVSTAVAWYQQKPGKAPKLLIYSASHRYTGVPSRFSGSGSGTDFTLTISSLQPEDFAVYYCQQHYITPLTFGQGTKLEIK | binds
14 | MYT13273 (antibody, V domains shown, Full-length IgG from Expi293 supernatant; also called datopotamab heavy chain and light chain pairing variant) VH: QVQLVQSGAEVKKPGASVKVSCKASGYTFTTAGMQWVRQAPGQGLEWMGWINTHSGVPKYAEDFKGRVTISADTSTSTAYLQLSSLKSEDTAVYYCAHSGFGSSYWYFDVWGQGTLVTVSS VL: DIQMTQSPSSLSASVGDRVTITCKASQDVSTAVAWYQQKPGKAPKLLIYSASYRYTGVPSRFSGSGSGTDFTLTISSLQPEDFAVYYCQQHYHTPLTFGQGTKLEIK | binds
15 | MYT13267 (antibody, V domains shown, Full-length IgG from Expi293 supernatant; also called datopotamab heavy chain and light chain pairing variant) VH: QVQLVQSGAEVKKPGASVKVSCKASGYTFTTAGMQWVRQAPGQGLEWMGWINTHSGVPKYAEDFKGRVTISADTSTSTAYLQLSSLKSEDTAVYYCARSGFGSHYWYFDVWGQGTLVTVSS VL: DIQMTQSPSSLSASVGDRVTITCKASQDVSTAVAWYQQKPGKAPKLLIYSASHRYTGVPSRFSGSGSGTDFTLTISSLQPEDFAVYYCQQHYITPLTFGQGTKLEIK | binds
